Experimental data: publication PMC8026774 (Cellular and molecular neurobiology, 2020)
Where no end group is shown, it is not given here.

How the values were obtained:
MOR-1-PK [1] = target: T1, MOR-1-PK (mouse, UniProt P42866 1-398); assay: cell-based or functional assay
MOR-1A-PK = MOR-1A-PK (mouse); assay: cell-based or functional assay
MOR-TR-PK = MOR-TR-PK (mouse); assay: cell-based or functional assay
MOR-1E-PK = MOR-1E-PK (mouse); assay: cell-based or functional assay
MOR-1B1-PK = MOR-1B1-PK (mouse); assay: cell-based or functional assay
MOR-1B1-PK (mouse), sequence (P42866 whole entry): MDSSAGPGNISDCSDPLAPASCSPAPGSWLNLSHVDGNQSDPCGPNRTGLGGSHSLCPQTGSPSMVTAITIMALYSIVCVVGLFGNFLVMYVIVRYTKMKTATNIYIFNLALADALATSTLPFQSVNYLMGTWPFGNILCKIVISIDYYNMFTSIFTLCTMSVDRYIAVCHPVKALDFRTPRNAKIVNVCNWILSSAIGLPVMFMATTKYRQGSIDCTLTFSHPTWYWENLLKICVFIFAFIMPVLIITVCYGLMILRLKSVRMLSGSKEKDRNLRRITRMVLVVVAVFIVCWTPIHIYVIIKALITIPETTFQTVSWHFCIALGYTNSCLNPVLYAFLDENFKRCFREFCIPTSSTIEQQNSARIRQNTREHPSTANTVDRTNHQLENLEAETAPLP

MOR-1-PK [2] = target: T1, MOR-1-PK; assay: radioligand binding
MOR-1 (untagged) = MOR-1 (untagged) (mouse, UniProt P42866 1-398); assay: radioligand binding
MOR-1 (untagged), sequence (P42866 whole entry): as above

T1 sequence (P42866 whole entry): as above
MOR-1E-PK (mouse), sequence (P42866 whole entry): as above
MOR-1A-PK (mouse), sequence (P42866 whole entry): as above
MOR-TR-PK (mouse), sequence (P42866 whole entry): as above

B1: β-endorphin (peptide)
peptide: YGGFMTSEKSQTPLVTLFKNAIIKNAYKKGE
modifications: not fully specified
For B1, the “[35S]GTPγS binding (G-protein activation), EC50” value (from here on “[35S]GTPγS binding”) (MOR-1-PK [1]) was 118 nM, the “[35S]GTPγS binding” value (MOR-1A-PK) was 112 nM and the “[35S]GTPγS binding” value (MOR-TR-PK) was 691 nM. The “[35S]GTPγS binding” value (MOR-1E-PK) was 23 nM, the “[35S]GTPγS binding” value (MOR-1B1-PK) was 141 nM and the Ki (MOR-1-PK [2]) was 10.4 nM. The Ki (MOR-1 (untagged)) was 6.22 nM.
